From patent publication US20190119406A1 (BISON THERAPEUTICS, published 2019)

Molecular target: T1, Mutant OA chain (long chain, CH1-hinge-CH2-CH3 with P395K, P396K, V397K) (human, UniProt P01857-1 1-330 = IgG part, P395K; P396K; V397K)
T1 construct: domain: CH1-hinge-CH2-CH3; Expressed alone it is expected as a long chain homodimer; also called OA mutation chain; Mutation OA chain
Assay: three independent co-transfections in HEK293, protein A bead pull-down, SDS-PAGE (FIG. 6)
Experimental: DNA encoding long chain and short chain were mixed with 1:1 ratio and transfected into HEK293 cells. Three days later, cell culture supernatants were harvested and subjected to magnetic protein A beads pull-down. Proteins bound to magnetic beads were analyzed by SDS-PAGE electrophoresis.
Various positive charged and negative charged polypeptide chain combinations were co-expressed in HEK 293 cells. […] Three days after transfection, cell culture supernatants were harvested by centrifugation and subjected to protein A magnetic beads (Pierce) pull down. Protein products bound on magnetic beads were characterized based on their mobility on SDS-PAGE gel electrophoresis. Collected protein A magnetic beads with bound proteins were re-suspended in 30 μL PBS buffer, mixed with 30 μL of SDS-PAGE loading buffer and boiled for 5 min. Half volume of boiled samples was loaded onto 10% SDS-PAGE to separate long chain homodimer, long chain and short chain heterodimer and short chain homodimer.

B1: Mutant OB chain (short chain, hinge-CH2-CH3 with T394D, P395D, P396D) (other, human, UniProt P01857-1 104-330, looked up, name in EU numbering)
chain: DKTHTCPPCPAPELLGGPSVFLFPPKPKDTLMISRTPEVTCVVVDVSHEDPEVKFNWYVDGVEVHNAKTKPREEQYNSTYRVVSVLTVLHQDWLNGKEYKCKVSNKALPAPIEKTISKAKGQPREPQVYTLPPSRDELTKNQVSLTCLVKGFYPSDIAVEWESNGQPENNYKTDDDVLDSDGSFFLYSKLTVDKSRWQQGNVFSCSVMHEALHNHYTQKSLSLSPGK
notes: domain: hinge-CH2-CH3; also called OB mutation chain; Mutation OB chain
B1: binds.
